The results in this text go back to the RNAGym collection of RNA variant scans (doi:10.1073/pnas.2313332121).

Sequences and labels used below:
B1: TPR t1 (parent)
chain: GACCAAUCUGCCCUCAGAGCUCGAGAACAUCUUCGGAUGCAGAGGAGGCAGGCUUCGGUGGCGCGAUAGCGCCAACGUCCUCAACCUCCAAUGCAUCCCACCACAUGAUGAUGCCUGAAGAGCCUUGGUUUUUUG

The variants in this data set derive from B1. Kind of data set: polymerase ribozyme fitness, log enrichment relative to wild type (log ratio); higher = more active; in vitro selection for triplet polymerase activity. The method in brief: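 Only genotypes with ≥10 input reads and ≥1 read per output were kept after Illumina sequencing of input and output libraries. These libraries were PCR-built, transcribed mutants of each subunit of a heterodimeric triplet polymerase ribozyme, each put through one triplicate in vitro selection round with frozen incubation at −7 °C, gel excision of extended constructs, streptavidin-bead capture and RT-PCR. Fitness is a logarithmic ratio of genotype enrichment to wild-type enrichment, from inverse-variance-weighted replicate averages, with the logarithm in base 2.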
For the variant U9G G17A A18U A46U A84G U87A U112C G127C U134A, the “polymerase ribozyme fitness (log ratio)” value is -2.66. The same measure for U9C A90G C115U U131C: 1.24; for U9A G61U C89U U92A U129A: -3.6; for G10C A37U C72A: -0.966.

Take G10C A26G G69A U125A: the “polymerase ribozyme fitness (log ratio)” value was -5.51.

For the variant U9C G48C C101A G117A, the “polymerase ribozyme fitness (log ratio)” value was -1.58.

With G10C C85U, the “polymerase ribozyme fitness (log ratio)” value is -1.64. The same measure for G10A C40A C72A A111C: -1.19; for U9C A16U C72G C88A A95C A111U: -6.59; for G10C U87A: -0.978.

As to G10A G44A G47A G61C, the “polymerase ribozyme fitness (log ratio)” value was -3.22. The same measure for U9C C12G G60C U78C: -1.6. Take G10U C13A C104U: the “polymerase ribozyme fitness (log ratio)” value is -0.097.

With G10A C70U A121U, the “polymerase ribozyme fitness (log ratio)” value was determined as 1.19. For U9C U59C A84U C104A C114U the value was -4.8; for U9G C124A U131G, 1.79. For U9G G61C C102A G122A U125A the value was -4.92. For G10A C13G C22G A37C C72A A95U, the “polymerase ribozyme fitness (log ratio)” value is -4.63. With G10A C73G, the “polymerase ribozyme fitness (log ratio)” value was -0.355. The same measure for G10A A29C G39A G69U: -2.05; for U9G A37C C40U C72U C123A: -0.161. As for U9C C13G C28G G45U G61A, the “polymerase ribozyme fitness (log ratio)” value was -2.49. The same measure for U9G U14G G93A: -0.26; for U9G A16U C82U C88U A95U U130G: -0.874; for G10U C53G U78A: -2.99.

As to U9G C12G C28G C40A C85A A90C C104A G110C, the “polymerase ribozyme fitness (log ratio)” value was -4.42. For G10A C13U U38G C56U C82G, the “polymerase ribozyme fitness (log ratio)” value is -1.27. For U9G A27U G39U A46U the value was -4. In the case of G10U C40U A41G A46C C64U, the “polymerase ribozyme fitness (log ratio)” value was -5.98. The same measure for U9G A26U C72U: -2.22. The same measure for U9G G39C G42U C64U: -2; for U9G G10C C11A C15A A37G U78C C85U A95U C123U: -3.97.

For the variant U9G G120A U130A, the “polymerase ribozyme fitness (log ratio)” value came out at 1.11. For G10U A41U C72G C101U G110A the value was -4.92. On to U9C C80G, for which the “polymerase ribozyme fitness (log ratio)” value was -5.3. The same measure for G10A A37U C53A C56G G69A C88U G120C G122U: -1.99; for U9A U78C U96A C124U: 1.26.

Turning to G10A G42U C85G, the “polymerase ribozyme fitness (log ratio)” value was -1.94. The same measure for U9A G58C G71A U112A G113C G128U: -3; for G10U C20A A84U U131C: -2.84.

For G10C C56U G117C, the “polymerase ribozyme fitness (log ratio)” value was -4.57. The same measure for U9A U30C G44A G57U G60A: -4.18; for G10A G63U C86U G120A: 0.0567; for G10C A26C A37U U78C A83U U87A C115G G127A: -6.88.

On to G10U C28G A46U G52A G63A U87C, for which the “polymerase ribozyme fitness (log ratio)” value was -5.27. With U9C C70U G93A, the “polymerase ribozyme fitness (log ratio)” value worked out at 0.136. With G10U C22G A50C A118G, the “polymerase ribozyme fitness (log ratio)” value was -5.56. The same measure for U9G G36U G57U C62U: -1.11; for U9G G48A G93C: -1.01; for U9C G44A C79U C86U G120A: 0.952. For U9G C28U C56A C114U A118U U125G U132A the value was -5.4. For U9C C56G G60A C88G the value was -3.64; for U9C U78C, 0.403.

For U9A U32A A37U A46C C56A C79A A111G, the “polymerase ribozyme fitness (log ratio)” value was -7.29. For G10A G45A G63U C82A C85A U92C the value was -5.42; for U9G C62G G120C, 0.877.

For the variant U9G G45U U92C U129G, the “polymerase ribozyme fitness (log ratio)” value is -1.65. For U9C C12U U81A C89A, the “polymerase ribozyme fitness (log ratio)” value was -1.67.

G10U A37U: the “polymerase ribozyme fitness (log ratio)” value is -0.888. For G10A G52A G60A C79A the value was -1.36; for G10A C114G G135A, -3.42; for U9A G42A C70U U129A, -4.53. Consider U9G C80A U87C C114U, for which the “polymerase ribozyme fitness (log ratio)” value was -4.36. The same measure for G10C G42U: -2.19.

For G10U A18U C70U, the “polymerase ribozyme fitness (log ratio)” value was -4.05. For U9G C85U the value was -0.222; for G10C C12U U14A G71U G107U, -5.41. For G10A C20U A27C G61U C102U the value was -6.05; for G10U A100U, -1.18. The same measure for U9G A18C C56G C72A: -3.47; for G10C A43U U129C: -3.15; for G10U C22G A46G C76A A118U: -4.37. Turning to U9C C56A A95C U116A, the “polymerase ribozyme fitness (log ratio)” value was -2.12. For U9G C40G G110U C123G the value was -4.98.

As for G10C G39A C56G G113U A118U, the “polymerase ribozyme fitness (log ratio)” value was -4.76. For U9G C11A G52A G57C U116G A121G the value was 0.971; for U9G A111U A118U G120A, -2.78; for U9C C53G C114U U116A C123A U130C, -7.66.

Turning to G10A C11A C15A, the “polymerase ribozyme fitness (log ratio)” value is -4.29. For G10A C62A A91C C123U, the “polymerase ribozyme fitness (log ratio)” value was -0.505.

Take G10U C12A G71U U78A C80U C114G: the “polymerase ribozyme fitness (log ratio)” value is -3.23.

As to U9C C11U G17A, the “polymerase ribozyme fitness (log ratio)” value was -3.22. For G10C A27G C40U A121U, the “polymerase ribozyme fitness (log ratio)” value was determined as 0.906. For G10A A26G A103U C104A A121C the value was -0.666.
